From patent US20020160000A1 (Dana-Farber, published 2002) come the findings set out here.

The target in test [1] is T1, human B7-4M (B7-4 membrane form) expressed on transfected COS or CHO cells (human, UniProt Q9NZQ7 19-290).
T1 construct: Cell-surface form on transiently transfected COS cells or on CHO transfectants; also called B7-4M (292); COS cells expressing B7-4M
In words: FACS on B7-4M-transfected COS cells. The method, then: COS cells were transfected with either vector DNA (pcDNAI), or an expression plasmid containing the B7-4M cDNA. After 72 hours, the transfected COS cells were detached by incubation in PBS containing 0.5 mM EDTA for 30 min. at 37° C.
The ability of COS cells expressing B7-4M to bind to various T cell receptors and antibodies was tested. […] The ability of COS cells expressing B7-4M to bind to IgG and murine ICOS-his fusion protein was also tested.

Test [2] addresses T2, human PD-1-Fc (extracellular region of human PD-1 fused to hinge-CH2-CH3 of human immunoglobulin gamma 1) (human, UniProt P01857 99-330 = IgG part).
T2 construct: domain: hinge-CH2-CH3; also called PD-1-Fc (human Ig gamma1); Human PD-1 linked to IgG1
In words: BIACORE, PD-1-Fc immobilized. In general terms: In SPR one partner is held on a chip, and binding of the other changes the refractive index at the surface.

Test [3] deals with T3, soluble human B7-4.Ig / B7-4-Fc fusion protein (Example 11) (human, UniProt Q9NZQ7 19-238).
T3 construct: not shown: Fc/Ig portion
Put plainly: BIACORE, PD-1-Fc immobilized, concentrated COS cell medium injected.

Test [4] concerns the target T1, human B7-4M (B7-4 membrane form) …. Put plainly: flow cytometry on human B7-4 CHO cells. On the technique in general: Flow cytometry measures light scatter and fluorescence of single cells or particles in a stream.

T1 sequence (Q9NZQ7 19-290): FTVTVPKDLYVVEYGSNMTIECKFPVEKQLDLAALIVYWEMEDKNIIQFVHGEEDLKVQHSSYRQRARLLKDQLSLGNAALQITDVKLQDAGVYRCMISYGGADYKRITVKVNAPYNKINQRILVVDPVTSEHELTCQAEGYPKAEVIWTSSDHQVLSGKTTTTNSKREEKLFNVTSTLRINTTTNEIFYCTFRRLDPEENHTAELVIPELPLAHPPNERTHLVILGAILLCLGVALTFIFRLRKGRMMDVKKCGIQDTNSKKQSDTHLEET
T2 sequence (P01857 other isoform, or with tags, fused parts or gaps limits assumed): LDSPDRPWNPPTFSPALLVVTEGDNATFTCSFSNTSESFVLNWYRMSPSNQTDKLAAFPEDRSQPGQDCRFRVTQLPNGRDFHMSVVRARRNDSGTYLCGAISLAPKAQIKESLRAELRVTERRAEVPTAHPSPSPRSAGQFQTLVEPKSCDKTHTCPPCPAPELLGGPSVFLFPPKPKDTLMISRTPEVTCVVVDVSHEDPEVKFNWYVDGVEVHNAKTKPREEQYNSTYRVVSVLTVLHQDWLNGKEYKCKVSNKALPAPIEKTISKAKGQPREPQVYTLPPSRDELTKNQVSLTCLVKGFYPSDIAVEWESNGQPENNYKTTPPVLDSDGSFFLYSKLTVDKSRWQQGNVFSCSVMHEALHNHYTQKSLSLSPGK
T3 sequence (Q9NZQ7 19-238): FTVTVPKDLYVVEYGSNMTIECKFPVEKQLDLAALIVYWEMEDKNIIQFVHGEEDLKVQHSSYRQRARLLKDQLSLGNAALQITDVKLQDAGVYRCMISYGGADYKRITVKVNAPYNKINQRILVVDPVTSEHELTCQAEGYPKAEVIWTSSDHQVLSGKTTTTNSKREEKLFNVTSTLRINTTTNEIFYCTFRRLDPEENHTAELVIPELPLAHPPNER

B1: murine ICOS-his fusion protein (receptor, UniProt Q9WVS0 21-144, looked up)
chain: EINGSADHRMFSFHNGGVQISCKYPETVQQLKMRLFREREVLCELTKTKGSGNAVSIKNPMLCLYHLSNNSVSFFLNNPDSSQGSYYFCSLSIFDPPPFQERNLSGGYLHIYESQLCCQLKLWL
notes: not shown: his tag
With B1, the binding result in test [1] is given as “no binding”.

B2: soluble form of human B7-2 (ligand)
chain: APLKIQAYFNETADLPCQFANSQNQSLSELVVFWQDQENLVLNEVYLGKEKFDSVHSKYMGRTSFDSDSWTLRLHNLQIKDKGLYQCIIHHKKPTGMIRIHQMNSELSVLANFSQPEIVPISNITENVYINLTCSSIHGYPEPKKMSVLLRTKNSTIEYDGVMQKSQDNVTELYDVSISLSVSFPDVTSNMTIFCILETDKTRLLSSPFSIELEDPQPPPDHIP
notes: also called soluble forms of B7-2
As for B2, the binding result in test [2] is “no binding”.

B3: soluble form of human B7-1 (ligand)
chain: VIHVTKEVKEVATLSCGHNVSVEELAQTRIYWQKEKKMVLTMMSGDMNIWPEYKNRTIFDITNNLSIVILALRPSDEGTYECVVLKYEKDAFKREHLAEVTLSVKADFPTPSISDFEIPTSNIRRIICSTSGGFPEPHLSWLENGEELNAINTTVSQDPETELYAVSSKLDFNMTTNHSFMCLIKYGHLRVNQTFNWNTTKQEHFPDN
notes: also called soluble forms of B7-1
On to B3, for which the binding result in test [2] is on record as “no binding”.

B4: murine PD-1-Fc / murine PD-1.Ig fusion protein (Fc fusion, UniProt Q02242 25-169, looked up)
chain: LEVPNGPWRSLTFYPAWLTVSEGANATFTCSLSNWSEDLMLNWNRLSPSNQTEKQAAFCNGLSQPVQDARFQIIQLPNRHDFHMNILDTRRNDSGIYLCGAISLHPKAKIEESPGAELVVTERILETSTRYPSPSPKPEGRFQGM
notes: also called mouse PD-1; not shown: Fc/Ig portion
B4: the binding result in test [3] and in test [4] was “binds” in each case.
